Measurements from patent publication CN116143922A (BEIJING DONGFANG BIOTECH CO LTD, dated 2023).

Assays:
[1] = target: T1, LILRA4 (UniProt P59901 24-446, limits assumed); assay: ELISA, coated LILR family protein 100 ng/well, single antibody concentration
[2] = target: T2, LILRA1 (UniProt O75019 17-461, limits assumed); assay: as above
[3] = target: T3, LILRB3 (UniProt O75022 24-443, limits assumed); assay: as above
[4] = target: T4, LILRA5 (UniProt A6NI73 42-268, limits assumed); assay: as above
T4 sequence (A6NI73 42-268 limits assumed): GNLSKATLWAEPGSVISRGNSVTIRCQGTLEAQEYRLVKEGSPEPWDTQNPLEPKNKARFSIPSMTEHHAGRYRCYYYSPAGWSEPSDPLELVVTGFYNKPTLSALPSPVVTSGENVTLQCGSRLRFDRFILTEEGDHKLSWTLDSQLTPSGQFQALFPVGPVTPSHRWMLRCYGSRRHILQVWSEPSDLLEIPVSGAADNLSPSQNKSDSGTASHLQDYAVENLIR

[5] = target: T5, LILRB5 (UniProt O75023 24-458, limits assumed); assay: as above
T5 sequence (O75023 24-458 limits assumed): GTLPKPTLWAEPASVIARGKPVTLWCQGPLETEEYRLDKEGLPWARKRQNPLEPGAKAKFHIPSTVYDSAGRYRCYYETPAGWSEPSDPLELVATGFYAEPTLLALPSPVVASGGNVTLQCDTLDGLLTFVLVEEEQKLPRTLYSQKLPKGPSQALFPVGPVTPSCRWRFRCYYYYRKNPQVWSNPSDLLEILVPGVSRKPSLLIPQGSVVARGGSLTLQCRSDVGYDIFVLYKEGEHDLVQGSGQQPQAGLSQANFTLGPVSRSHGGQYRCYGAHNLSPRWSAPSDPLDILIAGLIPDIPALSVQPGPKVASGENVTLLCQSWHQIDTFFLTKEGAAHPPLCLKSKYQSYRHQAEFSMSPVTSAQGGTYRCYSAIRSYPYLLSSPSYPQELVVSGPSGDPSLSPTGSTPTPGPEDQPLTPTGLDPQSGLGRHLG

[6] = target: T6, LILRA3 (UniProt Q8N6C8 24-439); assay: as above
T6 sequence (Q8N6C8 24-439 limits assumed): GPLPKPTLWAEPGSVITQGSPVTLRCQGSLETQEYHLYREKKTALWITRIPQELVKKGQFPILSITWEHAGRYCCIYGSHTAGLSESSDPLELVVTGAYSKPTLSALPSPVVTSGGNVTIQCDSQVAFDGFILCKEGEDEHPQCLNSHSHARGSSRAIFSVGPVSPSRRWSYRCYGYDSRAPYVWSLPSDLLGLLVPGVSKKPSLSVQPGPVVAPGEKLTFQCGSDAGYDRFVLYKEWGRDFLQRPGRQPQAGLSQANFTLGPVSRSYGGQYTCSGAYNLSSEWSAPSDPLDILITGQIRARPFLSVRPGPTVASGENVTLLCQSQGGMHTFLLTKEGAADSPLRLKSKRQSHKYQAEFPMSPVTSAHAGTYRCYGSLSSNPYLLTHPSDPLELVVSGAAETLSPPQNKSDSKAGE

[7] = target: T7, LILRB2 (UniProt Q8N423 22-460, limits assumed); assay: as above
T7 sequence (Q8N423 22-460 limits assumed): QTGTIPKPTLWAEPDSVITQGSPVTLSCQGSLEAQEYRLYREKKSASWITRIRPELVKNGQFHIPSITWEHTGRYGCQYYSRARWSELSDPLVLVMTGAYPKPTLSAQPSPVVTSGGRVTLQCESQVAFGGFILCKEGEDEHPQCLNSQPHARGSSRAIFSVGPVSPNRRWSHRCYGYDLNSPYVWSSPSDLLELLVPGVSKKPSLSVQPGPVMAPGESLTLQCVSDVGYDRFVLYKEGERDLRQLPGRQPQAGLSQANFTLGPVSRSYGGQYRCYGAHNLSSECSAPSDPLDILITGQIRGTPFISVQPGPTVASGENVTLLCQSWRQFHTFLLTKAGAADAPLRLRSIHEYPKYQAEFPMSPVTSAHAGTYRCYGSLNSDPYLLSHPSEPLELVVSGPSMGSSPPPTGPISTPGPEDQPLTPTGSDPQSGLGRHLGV

[8] = target: T8, LILRB1 (UniProt Q8NHL6 24-461, limits assumed); assay: as above
T8 sequence (Q8NHL6 24-461 limits assumed): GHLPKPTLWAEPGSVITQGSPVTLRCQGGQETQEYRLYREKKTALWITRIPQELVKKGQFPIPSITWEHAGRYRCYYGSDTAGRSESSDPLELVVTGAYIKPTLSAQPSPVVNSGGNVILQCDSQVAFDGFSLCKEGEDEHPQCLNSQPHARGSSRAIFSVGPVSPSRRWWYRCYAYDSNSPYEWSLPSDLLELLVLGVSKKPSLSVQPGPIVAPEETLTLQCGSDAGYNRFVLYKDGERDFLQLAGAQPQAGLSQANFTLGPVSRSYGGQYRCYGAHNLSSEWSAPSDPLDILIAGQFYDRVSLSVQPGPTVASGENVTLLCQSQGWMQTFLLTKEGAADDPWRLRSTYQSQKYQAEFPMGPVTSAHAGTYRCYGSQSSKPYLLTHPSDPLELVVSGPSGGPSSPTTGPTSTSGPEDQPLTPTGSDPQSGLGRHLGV

[9] = target: T9, LILRA2 (UniProt Q8N149 24-449, limits assumed); assay: as above
T9 sequence (Q8N149 24-449 limits assumed): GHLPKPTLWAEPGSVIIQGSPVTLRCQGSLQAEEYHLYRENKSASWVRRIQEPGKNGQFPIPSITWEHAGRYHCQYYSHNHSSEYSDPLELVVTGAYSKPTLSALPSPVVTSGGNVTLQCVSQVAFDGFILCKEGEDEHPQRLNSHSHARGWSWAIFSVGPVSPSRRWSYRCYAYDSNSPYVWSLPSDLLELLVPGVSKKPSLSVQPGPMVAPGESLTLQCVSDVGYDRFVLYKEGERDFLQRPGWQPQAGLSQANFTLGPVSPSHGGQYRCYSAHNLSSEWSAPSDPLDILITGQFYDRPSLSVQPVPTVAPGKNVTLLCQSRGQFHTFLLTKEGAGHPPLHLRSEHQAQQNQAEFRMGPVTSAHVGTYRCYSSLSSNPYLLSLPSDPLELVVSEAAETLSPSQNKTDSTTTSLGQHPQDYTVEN

[10] = target: T10, LILRA6 (UniProt Q6PI73 24-447, limits assumed); assay: as above
T10 sequence (Q6PI73 24-447 limits assumed): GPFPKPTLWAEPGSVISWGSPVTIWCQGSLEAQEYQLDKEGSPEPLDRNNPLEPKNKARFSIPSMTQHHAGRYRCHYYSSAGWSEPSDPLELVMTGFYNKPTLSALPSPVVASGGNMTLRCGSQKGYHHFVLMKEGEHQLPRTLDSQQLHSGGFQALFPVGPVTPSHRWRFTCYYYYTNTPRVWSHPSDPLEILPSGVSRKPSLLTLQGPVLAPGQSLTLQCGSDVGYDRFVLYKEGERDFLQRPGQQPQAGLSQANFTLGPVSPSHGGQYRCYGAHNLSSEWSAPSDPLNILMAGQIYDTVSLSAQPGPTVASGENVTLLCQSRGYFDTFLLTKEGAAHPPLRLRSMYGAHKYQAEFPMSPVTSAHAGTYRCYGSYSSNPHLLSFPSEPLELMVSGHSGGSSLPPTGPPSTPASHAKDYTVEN

[11] = target: T1, LILRA4; assay: ELISA, coated LILR family protein, antibody at 50 μg/mL
[12] = target: T2, LILRA1; assay: as above
[13] = target: T3, LILRB3; assay: as above
[14] = target: T4, LILRA5; assay: as above
[15] = target: T11, LILRB4抗原 (人LILRB4蛋白胞外段) (human, UniProt Q8NHJ6 22-259); assay: as above
T11 construct: extracellular domain

[16] = target: T5, LILRB5; assay: as above
[17] = target: T6, LILRA3; assay: as above
[18] = target: T7, LILRB2; assay: as above
[19] = target: T8, LILRB1; assay: as above
[20] = target: T9, LILRA2; assay: as above
[21] = target: T10, LILRA6; assay: as above
[22] = target: T12, THP-1细胞表面的LILRB4 (human, UniProt Q8NHJ6 22-448); assay: flow cytometry on THP-1 cells, FITC goat anti-mouse IgG detection
T12 construct: whole, on cells; Endogenous LILRB4 on THP-1 cells; also called 人单核细胞白血病细胞(THP-1)表面LILRB4

[23] = target: T12, THP-1细胞表面的LILRB4; assay: cell-based or functional assay
[24] = target: T12, THP-1细胞表面的LILRB4; assay: flow cytometry competition on THP-1 cells; MD-Ⅰ titrated, competitor FITC-labelled ApoE at 0.4 μg/mL
[25] = target: T11, LILRB4抗原 (人LILRB4蛋白胞外段); assay: ELISA, coated LILRB4 100 ng/well, goat anti-mouse IgG-HRP detection

T1 sequence (P59901 24-446 limits assumed): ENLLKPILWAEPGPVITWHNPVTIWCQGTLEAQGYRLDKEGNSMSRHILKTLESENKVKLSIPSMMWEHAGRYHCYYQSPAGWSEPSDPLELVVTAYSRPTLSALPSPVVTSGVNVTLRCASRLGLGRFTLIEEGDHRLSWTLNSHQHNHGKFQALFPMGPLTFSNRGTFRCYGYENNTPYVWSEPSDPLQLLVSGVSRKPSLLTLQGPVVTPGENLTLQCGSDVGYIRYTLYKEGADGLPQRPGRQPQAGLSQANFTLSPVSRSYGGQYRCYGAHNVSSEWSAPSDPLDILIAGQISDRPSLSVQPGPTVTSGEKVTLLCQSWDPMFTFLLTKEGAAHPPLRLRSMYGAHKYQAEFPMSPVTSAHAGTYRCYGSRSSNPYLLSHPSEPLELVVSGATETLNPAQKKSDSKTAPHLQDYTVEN
T2 sequence (O75019 17-461 limits assumed): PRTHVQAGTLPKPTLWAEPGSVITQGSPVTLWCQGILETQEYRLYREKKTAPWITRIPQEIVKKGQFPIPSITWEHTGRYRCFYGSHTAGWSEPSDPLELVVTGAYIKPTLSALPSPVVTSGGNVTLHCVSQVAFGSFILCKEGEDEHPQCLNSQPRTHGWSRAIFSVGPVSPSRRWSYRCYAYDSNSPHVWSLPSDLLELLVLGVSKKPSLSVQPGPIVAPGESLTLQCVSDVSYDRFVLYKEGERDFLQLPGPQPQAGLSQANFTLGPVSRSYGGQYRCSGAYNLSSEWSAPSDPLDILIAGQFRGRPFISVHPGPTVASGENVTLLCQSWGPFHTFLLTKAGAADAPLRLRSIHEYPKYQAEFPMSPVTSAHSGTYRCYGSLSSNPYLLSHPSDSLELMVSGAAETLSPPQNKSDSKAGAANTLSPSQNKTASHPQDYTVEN
T3 sequence (O75022 24-443 limits assumed): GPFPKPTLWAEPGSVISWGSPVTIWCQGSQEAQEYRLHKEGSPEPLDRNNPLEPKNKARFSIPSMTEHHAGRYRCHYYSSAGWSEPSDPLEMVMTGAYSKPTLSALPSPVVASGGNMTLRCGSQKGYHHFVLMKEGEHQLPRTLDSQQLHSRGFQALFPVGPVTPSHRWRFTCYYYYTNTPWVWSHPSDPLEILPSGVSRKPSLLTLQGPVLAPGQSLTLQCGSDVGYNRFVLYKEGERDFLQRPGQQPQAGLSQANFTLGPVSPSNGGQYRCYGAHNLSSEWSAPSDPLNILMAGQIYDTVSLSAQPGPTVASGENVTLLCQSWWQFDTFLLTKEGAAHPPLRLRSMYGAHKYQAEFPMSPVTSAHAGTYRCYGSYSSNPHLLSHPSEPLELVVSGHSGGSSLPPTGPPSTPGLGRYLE

B1: 抗LILRB4单克隆抗体MD-Ⅰ (mouse IgG1 heavy chain constant region, mouse Ck light chain constant region) (antibody, V domains shown)
VH: EVQLQESGPQLVRPGTSVKLSCKASGYTFTNYWIHWVKQRPGQGLEWIGEINPTNGHTNYNEKFKSKATLTVDKSSSTAYMQLSSLTSEDSAVYYCARYTYDQDAMDYWGQGTSVTVSS
VL: DIVITQSTSSLSASLGDRVTISCRASQDISNYLNWYQQKPDGTVKLLIYYTSRLHSGVPSRFSGSGSGTDYSLTISNLEQEDIATYFCQQGNTLPPTFGGGTKLEIKA
notes: also called MD-I
binding result [1]: no binding (tested: 50μg/mL) | binding result [2]: no binding (tested: 50μg/mL) | binding result [3]: no binding (tested: 50μg/mL) | binding result [4]: no binding (tested: 50μg/mL) | binding result [5]: no binding (tested: 50μg/mL) | binding result [6]: no binding (tested: 50μg/mL) | binding result [7]: no binding (tested: 50μg/mL) | binding result [8]: no binding (tested: 50μg/mL) | binding result [9]: no binding (tested: 50μg/mL) | binding result [10]: no binding (tested: 50μg/mL) | OD 450nm/630nm [11]: 0.156 | OD 450nm/630nm [12]: 0.075 | OD 450nm/630nm [13]: 0.015 | OD 450nm/630nm [14]: 0.078 | OD 450nm/630nm [15]: 2.42 | OD 450nm/630nm [16]: 0.056 | OD 450nm/630nm [17]: 0.028 | OD 450nm/630nm [18]: 0.014 | OD 450nm/630nm [19]: 0.047 | OD 450nm/630nm [20]: 0.054 | OD 450nm/630nm [21]: 0.045 | EC50 [22]: 5.09 µg/mL | IC50 of inhibition of ARG1 secretion by THP-1 cells in the presence of ApoE (精氨酸酶活性检测) [23]: 310 µg/mL | IC50 [24]: 8.62 µg/mL | EC50 [25]: 0.221 µg/mL
